One series concerns the target T1, UGT 1A3 (UniProt P35503).
T1 sequence: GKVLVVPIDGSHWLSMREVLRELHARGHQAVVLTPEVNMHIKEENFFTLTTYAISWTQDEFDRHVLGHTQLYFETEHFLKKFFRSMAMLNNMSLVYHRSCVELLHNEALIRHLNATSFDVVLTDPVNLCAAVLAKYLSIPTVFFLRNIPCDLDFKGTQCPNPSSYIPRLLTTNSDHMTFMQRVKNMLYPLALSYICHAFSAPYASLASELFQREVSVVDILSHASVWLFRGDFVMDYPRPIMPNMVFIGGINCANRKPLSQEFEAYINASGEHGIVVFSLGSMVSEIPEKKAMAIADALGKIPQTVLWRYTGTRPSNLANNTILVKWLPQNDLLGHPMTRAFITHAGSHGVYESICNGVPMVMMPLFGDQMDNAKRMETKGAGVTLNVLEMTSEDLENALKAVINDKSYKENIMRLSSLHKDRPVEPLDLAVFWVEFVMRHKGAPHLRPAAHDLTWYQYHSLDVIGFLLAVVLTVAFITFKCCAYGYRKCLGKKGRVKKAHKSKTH
As to the kind of experiment: filter. Particulars: 5-BrdU replaces T; apparent photocrosslink KD; plateau 70%.

In another series the target is T2, UGT 1A10 (UniProt Q9HAW8).
T2 sequence: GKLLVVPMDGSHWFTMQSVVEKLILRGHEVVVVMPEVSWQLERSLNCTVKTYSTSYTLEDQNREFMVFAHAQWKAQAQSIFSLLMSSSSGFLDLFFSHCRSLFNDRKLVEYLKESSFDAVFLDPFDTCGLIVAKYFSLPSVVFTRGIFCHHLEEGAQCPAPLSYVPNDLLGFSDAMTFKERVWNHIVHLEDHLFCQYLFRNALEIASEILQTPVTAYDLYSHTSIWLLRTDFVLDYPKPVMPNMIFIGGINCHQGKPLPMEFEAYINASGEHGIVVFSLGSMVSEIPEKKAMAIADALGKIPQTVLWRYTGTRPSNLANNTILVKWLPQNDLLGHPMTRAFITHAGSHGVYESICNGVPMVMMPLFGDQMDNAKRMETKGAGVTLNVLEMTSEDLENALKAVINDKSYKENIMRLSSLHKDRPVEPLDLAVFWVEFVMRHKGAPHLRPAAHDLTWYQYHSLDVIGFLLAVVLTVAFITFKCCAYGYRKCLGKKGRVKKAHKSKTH
As to the kind of experiment: filter. Particulars: 5-BrdU replaces T; apparent photocrosslink KD; plateau 72%.

The target of the next series is T3, Interleukin-4 (UniProt P05112).
T3 sequence: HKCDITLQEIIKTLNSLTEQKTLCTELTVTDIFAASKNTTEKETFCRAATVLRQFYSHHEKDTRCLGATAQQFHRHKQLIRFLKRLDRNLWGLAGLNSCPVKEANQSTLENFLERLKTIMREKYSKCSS
Particulars: 5-BrdU replaces T; photocrosslinking rate at 25 nM target; KD printed as ??

Series [1] concerns the target T4, UDP-glucuronosyl transferase (UGT) 1A1 (UniProt P22309).
T4 sequence: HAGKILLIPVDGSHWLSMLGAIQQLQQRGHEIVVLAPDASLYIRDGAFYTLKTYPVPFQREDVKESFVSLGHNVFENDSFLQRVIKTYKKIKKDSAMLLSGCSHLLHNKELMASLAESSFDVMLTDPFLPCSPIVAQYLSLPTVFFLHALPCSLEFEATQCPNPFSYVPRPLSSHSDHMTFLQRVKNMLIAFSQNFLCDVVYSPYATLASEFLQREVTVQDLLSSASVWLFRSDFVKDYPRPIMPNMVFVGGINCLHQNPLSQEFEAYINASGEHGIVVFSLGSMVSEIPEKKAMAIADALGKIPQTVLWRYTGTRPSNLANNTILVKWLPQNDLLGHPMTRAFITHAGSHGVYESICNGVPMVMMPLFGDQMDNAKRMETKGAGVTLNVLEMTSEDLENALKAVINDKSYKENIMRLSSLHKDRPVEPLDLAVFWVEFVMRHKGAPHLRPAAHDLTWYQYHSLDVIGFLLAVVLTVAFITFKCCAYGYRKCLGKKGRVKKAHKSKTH
The experiment in a line: filter. Particulars: 5-BrdU replaces T; apparent photocrosslink KD; plateau 70%.

This is an account of results in US20030054360.

For the sequence “ATATATATGGGAGGACGATGCGGGCCGACTTTGTCACCGAGTGCATCCGAGGTCAGACGACGAGCGGGAAAAAAAA [UGT 1A3 pool 141 clone 53]”, the Kd with UGT 1A3 was 3.9 nM.

With “ATATATATGGGAGGACGATGCGGCACCACTTCTTTACCTCACTCTTTCTGCAGCAGACGACGAGCGGGAAAAAAAA [UGT 1A10 pool 140 clone 45]”, the Kd with UGT 1A10 was found to be 2.1 nM.

In the series with Interleukin-4, “ATATATATGGGAGGACGATGCGGGCACAGGTTCTATCAACGTTGTCCTGAGTAATTGACCTGCAGACGACGAGCGGGAAAAAAAA [IL-4 pool 012 clone 63]” returned a photocrosslinking rate of 0.71 J-1 cm2.

As for “ATATATATGGGAGGACGATGCGGCACCTGATTTCTACCCTTTACTTTGTGTGGCAGACGACGAGCGGGAAAAAAAA [UGT 1A1 pool 319 clone 73]”, in series [1], the Kd was 22 nM.
